This is an account of results in PMC5810956 (Immunity, 2018).

Test [1] addresses HA head of A/Florida/904/2000 (H1N1) (Influenza A virus A/Florida/904/2000 …, UniProt Q91R26, strain). Put plainly: BLI. (In general: BLI is a label-free optical method that tracks binding on a fibre tip over time.)
Test [2] deals with T1, HA head domain of A/Texas/50/2012 (H3N2) (Influenza A virus A/Texas/50/2012 (H3N2), strain). Put plainly: BLI.
Test [3] concerns the target T1, HA head domain of A/Texas/50/2012 (H3N2). Put plainly: crystal structure.

B1: K03.12 Fab (tag removed, for binding studies) (Fab, V domains shown)
VH: EVQLVQSGAEVKKPGASVKVSCKTSGYTFTAYYLHWVRQAPGQGFEWMAWINPNTGDTNYAQKFQGRVTLSRDTSITTAYMELTRLRSDDTAVYYCAKDLTLMYVFDSGWARGAHDYYGMDVWGQGTTVAVSG
VL: PSALTQPASVSGSPGQSVTISCTGTNSDVGTFDLVSWYQQYPGKAPKLIIYEGSRRPSGVSDRFSGSKSGNTASLTISGLQAEDEADYYCSSYAGSVVFGGGTKLTVL
In the case of B1, the binding result in test [1] and in test [2] was “binds” each time.

B2: K03.12 Fab for crystallization (noncleavable 6xHis tag) (Fab, V domains shown)
VH: EVQLVQSGAEVKKPGASVKVSCKTSGYTFTAYYLHWVRQAPGQGFEWMAWINPNTGDTNYAQKFQGRVTLSRDTSITTAYMELTRLRSDDTAVYYCAKDLTLMYVFDSGWARGAHDYYGMDVWGQGTTVAVSG
VL: PSALTQPASVSGSPGQSVTISCTGTNSDVGTFDLVSWYQQYPGKAPKLIIYEGSRRPSGVSDRFSGSKSGNTASLTISGLQAEDEADYYCSSYAGSVVFGGGTKLTVL
Regarding B2, the binding result in test [3] is “binds”.

B3: K03.1-12 lineage unmutated common ancestor (UCA) Fab (tag removed, for binding studies) (Fab, V domains shown)
VH: not shown
VL: QSALTQPASVSGSPGQSITISCTGTSSDVGSYNLVSWYQQHPGKAPKLMIYEGSKRPSGVSNRFSGSKSGNTASLTISGLQAEDEADYYCCSYAGSVVFGGGTKLTVL
B3: the binding result in test [1] and in test [2] was “binds” each time.

B4: I-11 Fab (inferred evolutionary intermediate of the K03.1-12 lineage) (Fab, V domains shown)
VH: not shown
VL: QSALTQPASVSGSPGQSVTISCTGTSSDVGSYNLVSWYQQHPGKAPKLMIYEGSKRPSGVSNRFSGSKSGNTASLTISGLQAEDEADYYCCSYAGSVVFGGGTKLTVL
Turning to B4, the binding result in test [1] and in test [2] was “binds” throughout.
